Source: patent US20060134122A1, “Peptides of syndecan-1 for inhibition of cancer” (priority 2004, published 2006)

Assays:
[1] = system: MDA-MB-435 human mammary carcinoma cells; assay: Cell spreading assay, MDA-MB-435; assay type: cell-based; conditions: 2 h, GST-mS1ED 20 μM; for cell spreading on VN: 10 μg/mL VN, LM609 30 μg/mL
Method: FIGS. 2A-C—Sdc-1 adhesion-mediated cell spreading correlates with αvβ3 integrin. expression and activity. (FIG. 2A) FACS analysis of αvβ3 integrin expression (mAb LM609) in human mammary carcinoma cells against an IgG isotype control. (FIG. 2B) Depicted on split panels are phalloidin-stained MDA-MB-435 (upper half) and MCF-7 (lower half) cells 2 h after plating on wells coated with mAb B-B4 in plating medium alone or medium containing either 30 μg/mL mAb LM609, 1 μg/mL mAb 13 or 20 μM GST-mS1ED. Bar, 50 μm. (FIG. 2C) Untreated MDA-MB-435, MDA-MB-231 and MCF-7 cells (columns 1 and 4) and cells pretreated in suspension with 1 μg/mL mAb 13 (columns 2 and 3) were seeded on wells coated with either mAb B-B4 or COL I in plating medium alone (columns 1, 2 and 4) or medium containing 20 μM GST-mS1ED (column 3). Cells were incubated at 37° C. for 2 h, fixed, permeabilized and stained with WOW1 and an Alexa 488-conjugated secondary. Panel insets are corresponding phase contrast pictures. Bar, 20 μm.
FIG. 3—MDA-MB-435, but not MCF-7, human carcinoma cells display functional coupling of Sdc-1 and αvβ3 integrins on VN. Depicted are phalloidin-stained cells 2 h after plating on wells coated with 10 μg/mL VN (upper half) or FN (lower half) in plating medium alone or medium containing either 30 μg/mL mAb LM609, 25 μg/mL mAb 13, 20 μM GST-mS1ED or -mS4ED. Bar, 50 μm.
Sdc-1 adhesion-mediated cell spreading correlates with αvβ3 integrin expression and activity. To test whether the αvβ3 integrin's dependence on Sdc-1 extends to other carcinoma cells, the inventors screened a panel of human carcinoma cells with mAb LM609 using FACS analysis. […] To test the collaboration between Sdc-1 and αvβ3 integrin when cells are adherent via Sdc-1, MDA-MB-435 and MCF-7 cells were plated on wells coated with hS1-specific mAb B-B4. While αvβ3-positive MDA-MB-435 cells spread on this antibody substratum, their spreading is blocked (similar to results obtained in the MDA-MB-231; Beauvais and Rapraeger, 2003) by treatment with either mAb LM609 (added either before plating or 30 min after plating, when cells have already begun to spread) or GST-mS1ED protein (which is not recognized by mAb B-B4).
MDA-MB-435, but not MCF-7, human carcinoma cells display functional coupling of Sdc-1 and αvβ3 integrin on VN. To test whether activation of αvβ3 integrin activation on matrix is also functionally coupled to Sdc-1, MDA-MB-435 and MCF-7 cells were plated on either VN or FN (FIG. 3). MDA-MB-435 cells spread on VN and require αvβ3 integrins for this activity as spreading is blocked by mAb LM609. […]

B82L fibroblasts = assay: B82L cell attachment and spreading; assay type: cell-based, mouse; conditions: for cell attachment and spreading on VN: 5 μg/mL VN, S1ED 1-30 μM, GST and GST-mS4ED 30 μM
Excerpt: FIGS. 11A-F—Downregulation of mouse Sdc-1 expression by siRNA blocks αvβ5-dependent cell attachment and spreading on VN. FACS analysis for (FIG. 11A) mouse syndecan-1 (mAb 281.2), (FIG. 11B) αv integrin subunit (mAb H9.2B8), (FIG. 11C) mouse Syndecan-4 (mAb KY8.2), (FIG. 11D) human syndecan-1 (mAb B-B4) and (FIG. 11E) FcR^ecto-hS1 chimera (FITC-conjugated hIgG) expression against isotype IgG controls (red-fill) in vector^NEO (FIGS. 11A-C), human syndecan-1 (FIG. 11D) and FcR^ecto-hS1 (FIG. 11E) expressing B82L cells 48 h after transfection with either 600 nM control (Control) or mouse syndecan-1-specific siRNA (siRNA). (FIG. 11F) B82L^NEO empty vector-transfected control cells and B82L cells expressing human syndecan-1 or the FcR^ecto-hS1 chimera were transfected with control or mouse syndecan-1-specific siRNA and seeded on wells coated with either 5 μg/mL VN alone or a mixed substratum of VN plus 60 μg/mL of antibody directed against mouse syndecan-1 (281.2), human syndecan-1 (B-B4) or the FcR^ecto-hS1 chimera (hIgG). Cells were incubated at 37° C. for 2 h, fixed, and stained with rhodamine-conjugated phalloidin.
FIGS. 12A-B—B82L cell spreading on VN is blocked by recombinant Scd-1ED. (FIG. 12A) B82L fibroblasts were plated on 5 μg/mL VN in the absence of other treatment, or in the presence of 30 μM GST, 1-30 μM GST-mS1ED or 30 μM GST-mS4ED (inset), then fixed and stained with rhodamine-phalloidin for visualization. (FIG. 12B) Quantification of cell adhesion in triplicate samples (±S.E.) plated either with no additions, or concentrations of GST-mS1ED ranging from 0-30 μM. […]
The failure of NEO cells to engage the mixed substratum is indicative of the efficient blockade of mouse Sdc-1 expression by the siRNA. It is unlikely that the mouse Sdc-1-siRNA treatment has any non-specific cellular effects since spreading on VN is specifically rescued by the expression of full-length human Sdc-1 (hS1, FIG. 11F). Spreading of the B82L-hS1 cells is indistinguishable from parental cells. However, spreading on VN is not recovered in cells expressing the FcR^ecto-hS1 chimera—a construct in which the syndecan's ectodomain is replaced by the ectodomain of the human Fcγ receptor Ia (FcR^ecto-hS1)—regardless of whether the cells are plated on VN alone, or VN supplemented with 60 μg/mL of hIgG to engage the FcR^ecto-hS1 construct.
Recombinant Sdc-1 ectodomain competitively blocks αvβ5 integin activity. To test whether soluble Sdc-1 ectodomain will compete with the syndecan activation of the αvβ5 integrin, B82L cells were plated on 5 μg/mL VN in the presence of a recombinant GST fusion protein containing either the ectodomain of mouse Sdc-1 (GST-mS1ED) or human Sdc-1 (GST-hS1ED; data not shown).

B1: GST-mS4ED: recombinant GST fusion of mouse syndecan-4 ectodomain, specificity control (protein)
chain: ESIRETEVIDPQDLLEGRYFSGALPDDEDAGGSDDFELSGSGDLDDTEEPRPFPEVIEPLVPLDNHIPENAQPGIRVPSEPKELEENEVIPKRAPSDVGDDMSNKVSMSSTAQGSNIFERTE
modifications: left off: a dimerising Fc or GST
notes: recombinant GST fusion of mouse syndecan-4 ectodomain, specificity control
- cell spreading on VN [1]: no effect
- cell attachment and spreading on VN (B82L fibroblasts): without effect

B2: GST-mS1ED: recombinant mouse syndecan-1 ectodomain expressed as a fusion protein with GST (protein)
chain: QIVAVNVPPEDQDGSGDDSDNFSGSGTGALPDTLSRQTPSTWKDVWLLTATPTAPEPTSSNTETAFTSVLPAGEKPEEGEPVLHVEAEPGFTARDKEKEVTTRPRETVQLPITQRASTVRVTTAQAAVTSHPHGGMQPGLHETSAPTAPGQPDHQPPRVEGGGTSVIKEVVEDGTANQLPAGEGSGEQDFTFETSGENTAVAAVEPGLRNQPPVDEGATGASQSLLDRKEVLG
modifications: left off: a dimerising Fc or GST
notes: recombinant mouse syndecan-1 ectodomain expressed as a fusion protein with GST
- cell spreading on FN ([1]; 10 μg/mL FN, mAb 13 25 μg/mL): retain their ability to spread
- cell spreading on VN [1]: fail to spread
- cell spreading on mAb B-B4 ([1]; LM609 30 μg/mL (before or 30 min after plating)): blocked
- cell attachment and spreading on VN (B82L fibroblasts): increasing blockade
- lowest concentration tested at which competition occurs (B82L fibroblasts; cells plated on 5 μg/mL VN): 1 µM
